Measurements reported in patent US20210107998A1 (Boehringer Ingelheim, published 2021).

How the values were obtained:
[1] = target: Recombinant human BAFF trimer (Boehringer Ingelheim Pharmaceuticals, Inc.) (human, UniProt Q9Y275 134-285, limits assumed); assay: cell-based or functional assay
[2] = target: Recombinant human BAFF 60mer (Boehringer Ingelheim Pharmaceuticals, Inc.) (human, UniProt Q9Y275 134-285, limits assumed); assay: cell-based or functional assay

IC50, NFkB luciferase reporter, human BAFFR-CHO cells [1] [nM]	IC90, NFkB luciferase reporter, human BAFFR-CHO cells [1] [nM]	IC50, NFkB luciferase reporter, human BAFFR-CHO cells [2] [nM]	IC90, NFkB luciferase reporter, human BAFFR-CHO cells [2] [nM]	Binder
0.027	0.119	0.005	0.006	Compound O (bispecific antibody, human IgG1, kappa, L234A L235A) chain 1: DIQMTQSPSSLSASVGDRVSITCKASQNAGIDVAWFQQKPGKAPKLLIYSKSNRYTGVPSRFSGSGSGTDFTLTISSLQPEDFADYYCLQYRSYPRTFGGGTKLEIKGGGSGGGGQVQLVQSGAEVKKPGSSVKVSCKASGYTFTDQTIHWMRQAPGQGLEWIGYIYPRDDSPKYNENFKGKVTITADKSTSTAYMELSSLRSEDTAVYYCAIPDRSGYAWFIYWGQGTLVTVSSLGGGSGASTKGPSVFPLAPSSKSTSGGTAALGCLVKDYFPEPVTVSWNSGALTSGVHTFPAVLQSSGLYSLSSVVTVPSSSLGTQTYICNVNHKPSNTKVDKRVEPKSCDKTHTCPPCPAPEAAGGPSVFLFPPKPKDTLYITREPEVTCVVVDVSHEDPEVKFNWYVDGVEVHNAKTKPREEQYNSTYRVVSVLTVLHQDWLNGKEYKCKVSNKALPAPIEKTISKAKGQPREPQVYTLPPSREEMTKNQVSLTCLVKGFYPSDIAVEWESNGQPENNYKTTPPVLDSDGSFFLYSKLTVDKSRWQQGNVFSCSVMHEALHNHYTQKSLSLSPG chain 2: DIQMTQSPSSLSASVGDRVTITCKASRDVAIAVAWYQQKPGKVPKLLIYWASTRHTGVPSRFSGSGSRTDFTLTISSLQPEDVADYFCHQYSSYPFTFGSGTKLEIKGGGSGGGGQVQLVQSGAEVKKPGASVKVSCKASGYSFSTFFIHWVRQRPGQGLEWIGRIDPNSGATKYNEKFESKVTLTRDTSISTAYMELSRLRSDDTAVYYCARGEDLLIRTDALDYWGQGTSVTVSSLGGGSGRTVAAPSVFIFPPSDEQLKSGTASVVCLLNNFYPREAKVQWKVDNALQSGNSQESVTEQDSKDSTYSLSSTLTLSKADYEKHKVYACEVTHQGLSSPVTKSFNRGEC
0.026	0.108	0.005	0.013	Compound Q (bispecific antibody, human IgG1, kappa, L234A L235A) chain 1: DIQMTQSPSSLSASVGDRVSITCKASQNAGIDVAWFQQKPGKAPKLLIYSKSNRYTGVPSRFSGSGSGTDFTLTISSLQPEDFATYYCLQYRSYPRTFGQGTKLEIKGGGSGGGGQVQLVQSGAEVKKPGSSVKVSCKASGYTFTDQTIHWMRQAPGQGLEWIGYIYPRDDSPKYNENFKGKVTITADKSTSTAYMELSSLRSEDTAVYYCAIPDRSGYAWFIYWGQGTLVTVSSLGGGSGASTKGPSVFPLAPSSKSTSGGTAALGCLVKDYFPEPVTVSWNSGALTSGVHTFPAVLQSSGLYSLSSVVTVPSSSLGTQTYICNVNHKPSNTKVDKRVEPKSCDKTHTCPPCPAPEAAGGPSVFLFPPKPKDTLYITREPEVTCVVVDVSHEDPEVKFNWYVDGVEVHNAKTKPREEQYNSTYRVVSVLTVLHQDWLNGKEYKCKVSNKALPAPIEKTISKAKGQPREPQVYTLPPSREEMTKNQVSLTCLVKGFYPSDIAVEWESNGQPENNYKTTPPVLDSDGSFFLYSKLTVDKSRWQQGNVFSCSVMHEALHNHYTQKSLSLSPG chain 2: DIQMTQSPSSLSASVGDRVTITCKASRDVAIAVAWYQQKPGKVPKLLIYWASTRHTGVPSRFSGSGSRTDFTLTISSLQPEDVADYFCHQYSSYPFTFGSGTKLEIKGGGSGGGGQVQLVQSGAEVKKPGASVKVSCKASGYSFSTFFIHWVRQAPGQGLEWIGRIDPNSGATKYNEKFESRVTMTRDTSISTAYMELSRLRSDDTAVYYCARGEDLLIRTDALDYWGQGTSVTVSSLGGGSGRTVAAPSVFIFPPSDEQLKSGTASVVCLLNNFYPREAKVQWKVDNALQSGNSQESVTEQDSKDSTYSLSSTLTLSKADYEKHKVYACEVTHQGLSSPVTKSFNRGEC
0.019	0.088	0.002	0.009	Compound P (bispecific antibody, human IgG4 S228P, kappa) chain 1: DIQMTQSPSSLSASVGDRVSITCKASQNAGIDVAWFQQKPGKAPKLLIYSKSNRYTGVPSRFSGSGSGTDFTLTISSLQPEDFADYYCLQYRSYPRTFGGGTKLEIKGGGSGGGGQVQLVQSGAEVKKPGSSVKVSCKASGYTFTDQTIHWMRQAPGQGLEWIGYIYPRDDSPKYNENFKGKVTITADKSTSTAYMELSSLRSEDTAVYYCAIPDRSGYAWFIYWGQGTLVTVSSLGGGSGASTKGPSVFPLAPCSRSTSESTAALGCLVKDYFPEPVTVSWNSGALTSGVHTFPAVLQSSGLYSLSSVVTVPSSSLGTKTYTCNVDHKPSNTKVDKRVESKYGPPCPPCPAPEFLGGPSVFLFPPKPKDTLYITREPEVTCVVVDVSQEDPEVQFNWYVDGVEVHNAKTKPREEQFNSTYRVVSVLTVLHQDWLNGKEYKCKVSNKGLPSSIEKTISKAKGQPREPQVYTLPPSQEEMTKNQVSLTCLVKGFYPSDIAVEWESNGQPENNYKTTPPVLDSDGSFFLYSRLTVDKSRWQEGNVFSCSVMHEALHNHYTQKSLSLSLG chain 2: DIQMTQSPSSLSASVGDRVTITCKASRDVAIAVAWYQQKPGKVPKLLIYWASTRHTGVPSRFSGSGSRTDFTLTISSLQPEDVADYFCHQYSSYPFTFGSGTKLEIKGGGSGGGGQVQLVQSGAEVKKPGASVKVSCKASGYSFSTFFIHWVRQRPGQGLEWIGRIDPNSGATKYNEKFESKVTLTRDTSISTAYMELSRLRSDDTAVYYCARGEDLLIRTDALDYWGQGTSVTVSSLGGGSGRTVAAPSVFIFPPSDEQLKSGTASVVCLLNNFYPREAKVQWKVDNALQSGNSQESVTEQDSKDSTYSLSSTLTLSKADYEKHKVYACEVTHQGLSSPVTKSFNRGEC
0.03	0.139	0.005	0.016	Compound R (bispecific antibody, human IgG4 S228P, kappa) chain 1: DIQMTQSPSSLSASVGDRVSITCKASQNAGIDVAWFQQKPGKAPKLLIYSKSNRYTGVPSRFSGSGSGTDFTLTISSLQPEDFATYYCLQYRSYPRTFGQGTKLEIKGGGSGGGGQVQLVQSGAEVKKPGSSVKVSCKASGYTFTDQTIHWMRQAPGQGLEWIGYIYPRDDSPKYNENFKGKVTITADKSTSTAYMELSSLRSEDTAVYYCAIPDRSGYAWFIYWGQGTLVTVSSLGGGSGASTKGPSVFPLAPCSRSTSESTAALGCLVKDYFPEPVTVSWNSGALTSGVHTFPAVLQSSGLYSLSSVVTVPSSSLGTKTYTCNVDHKPSNTKVDKRVESKYGPPCPPCPAPEFLGGPSVFLFPPKPKDTLYITREPEVTCVVVDVSQEDPEVQFNWYVDGVEVHNAKTKPREEQFNSTYRVVSVLTVLHQDWLNGKEYKCKVSNKGLPSSIEKTISKAKGQPREPQVYTLPPSQEEMTKNQVSLTCLVKGFYPSDIAVEWESNGQPENNYKTTPPVLDSDGSFFLYSRLTVDKSRWQEGNVFSCSVMHEALHNHYTQKSLSLSLG chain 2: DIQMTQSPSSLSASVGDRVTITCKASRDVAIAVAWYQQKPGKVPKLLIYWASTRHTGVPSRFSGSGSRTDFTLTISSLQPEDVADYFCHQYSSYPFTFGSGTKLEIKGGGSGGGGQVQLVQSGAEVKKPGASVKVSCKASGYSFSTFFIHWVRQAPGQGLEWIGRIDPNSGATKYNEKFESRVTMTRDTSISTAYMELSRLRSDDTAVYYCARGEDLLIRTDALDYWGQGTSVTVSSLGGGSGRTVAAPSVFIFPPSDEQLKSGTASVVCLLNNFYPREAKVQWKVDNALQSGNSQESVTEQDSKDSTYSLSSTLTLSKADYEKHKVYACEVTHQGLSSPVTKSFNRGEC
